Numbered stars: 1 amine (or outer) side, 2 acyl side, 3 side chain; on linkers, the order of the positions; unused ones are H or OH. Bridge positions count the residues as written; N and C are the ends. Square brackets hold non-standard residues; d marks the D form. Primed or numbered codes have the meaning given here. MB(4) = Monomer B (PyrS), N-Alloc pyrrolidine stapling residue, (S)-3-amino-1-(allyloxycarbonyl)pyrrolidine-3-carboxylic acid, C=CCOC(=O)N1CC[C@@](N[*:1])(C(=O)[*:2])C1; R7″ = stapling residue, (R)-2-(6-heptenyl)alanine (drawn only), C=CCCCCC[C@@](C)(N[*:1])C(=O)[*:2]; R4″ = stapling residue, (R)-2-(3-butenyl)alanine (drawn only), C=CCC[C@@](C)(N[*:1])C(=O)[*:2]; R7 = (R)-2-(6-heptenyl)alanine, C=CCCCCC[C@@](C)(N[*:1])C(=O)[*:2]; R6 = (R)-2-(5-hexenyl)alanine, C=CCCCC[C@@](C)(N[*:1])C(=O)[*:2]; MB(5) = Monomer B (PyrS), N-Alloc pyrrolidine stapling residue; R4 = (R)-2-(3-butenyl)alanine, C=CCC[C@@](C)(N[*:1])C(=O)[*:2]; MF = Monomer F (SdN), acyclic alkyl-N(Alloc) stapling residue; MA = Monomer A (Az), N-Alloc azetidine stapling residue; S7 = C[C@@](CCCCCC=[*:3])(N[*:1])C(=O)[*:2]; R8 = C=CCCCCCC[C@@](C)(N)C(=O)O; αMeL = CC(C)C[C@](C)(N)C(=O)O; R5 = C=CCCC[C@@](C)(N)C(=O)O; αMeV = CC(C)[C@](C)(N)C(=O)O; S5 = C=CCCC[C@](C)(N)C(=O)O; Aib = CC(C)(N)C(=O)O
T1: full-length beta-catenin (UniProt P35222 2-781, limits assumed)
T1 construct: mature; also called full-length ß-Catenin; β-catenin
T1 sequence (looked up): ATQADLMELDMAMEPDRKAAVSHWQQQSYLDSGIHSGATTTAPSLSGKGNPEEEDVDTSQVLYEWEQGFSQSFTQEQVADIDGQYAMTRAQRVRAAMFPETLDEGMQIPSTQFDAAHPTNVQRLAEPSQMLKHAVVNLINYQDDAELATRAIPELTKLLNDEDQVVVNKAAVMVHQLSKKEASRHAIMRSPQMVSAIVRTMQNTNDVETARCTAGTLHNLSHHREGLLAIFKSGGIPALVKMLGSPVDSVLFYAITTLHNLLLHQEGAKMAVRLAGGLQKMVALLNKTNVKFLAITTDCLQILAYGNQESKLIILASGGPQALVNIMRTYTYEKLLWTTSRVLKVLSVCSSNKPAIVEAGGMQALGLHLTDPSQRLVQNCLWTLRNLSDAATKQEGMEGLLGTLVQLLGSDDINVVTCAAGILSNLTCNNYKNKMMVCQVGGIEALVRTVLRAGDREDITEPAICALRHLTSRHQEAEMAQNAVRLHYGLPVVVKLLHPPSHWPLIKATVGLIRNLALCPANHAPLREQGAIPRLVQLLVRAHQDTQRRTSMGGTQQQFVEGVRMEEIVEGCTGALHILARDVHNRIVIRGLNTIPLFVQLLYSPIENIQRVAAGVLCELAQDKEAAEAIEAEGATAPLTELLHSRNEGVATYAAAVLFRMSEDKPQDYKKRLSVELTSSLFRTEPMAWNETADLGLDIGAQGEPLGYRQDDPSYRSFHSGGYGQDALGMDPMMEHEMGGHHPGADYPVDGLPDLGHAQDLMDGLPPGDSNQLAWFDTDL


Legend:
full-length beta-catenin [1] = target: T1, full-length beta-catenin; test: competition FP, grade of FP EC50 (++: 100-500 nM)
Method: (§1) In some embodiments, a competition fluorescence polarization assay is used to assess binding of provided compounds to beta-catenin. In an exemplary procedure, solutions of provided compounds, e.g., provided stapled peptides, were prepared in a buffer (e.g., 50 mM Tris pH 8.0, 250 mM NaCl, 2% glycerol, 0.5 mM EDTA, 0.02% w/v sodium azide) using a 3-fold serial dilution from 5 µM. Probe solution (15 nM full-length ß-Catenin, 20 nM FITC labeled peptide in buffer) was prepared and incubated for a period of time, e.g., 5 minutes, and the a volume, e.g., 40 µL per well plated in suitable plate, e.g., a black polystyrene 384-well plate (Corning). Equal volume of the serial diluted peptide was added to the plate and incubated protected from light for 15 minutes prior to read. Reads were performed on a Spectramax M5 (Molecular Devices) in duplicate. Suitable probe was FITC-PEG1-PQ-S5-ILD-S5-HVRRVWR (SEQ ID NO: 1) (hydrocarbon staple formed by two S5 via olefin metathesis) and/or FITC-bA-PQ-S5-ILD-S5-HVRRVWR (SEQ ID NO: 3) (hydrocarbon staple formed by two S5 via olefin metathesis). […] Another peptide, FPO217c (Ac-AR_8ILDAHIM$B5$RVW (SEQ ID NO: 280), with N-terminal proline removed and valine replaced with isoleucine compared to FP0025c) was prepared.

full-length beta-catenin [2] = target: T1, full-length beta-catenin; test: competition FP
Method: as §1

full-length beta-catenin [3] = target: T1, full-length beta-catenin; test: competition FP, grade of FP EC50 (+: 500-5000 nM)
Method: as §1

Row | FP EC50 (full-length beta-catenin [1]) [nM] | EC50 (full-length beta-catenin [2]) [nM] | FP EC50 (full-length beta-catenin [3]) [nM] | Binder
1 | 100 to 500 | – | – | Ac-A[R6]ILDAHI[MF]RVW-NH2 (staple 2-9; also: carbamate staple, isomer 2, olefin geometry not assigned, also called FP0502c (Peak 2)) [FP0502c Isomer 2]
2 | – | 920 | 500 to 5000 | Ac-PQ[R5]ILD[MA]HVRRVWR-NH2 (staple 3-7) [FP0733c]
3 | 100 to 500 | – | – | Ac-A[R8]ILDAHI[MB(4)]R[αMeV]W-NH2 (staple 2-9) [FP0632c]
4 | 100 to 500 | – | – | Ac-A[R7″]ILDAHI[MA]RVW-NH2 (staple 2-9) [FP0516c]
5 | – | 540 | 500 to 5000 | Ac-PQ[MA]ILD[S5]HVRRVWR-NH2 (staple 3-7) [FP0724c]
6 | 100 to 500 | – | – | AXILDAHIXRVW (not fully specified; Ac-A-MA-I-L-D-A-H-I-MI-R-V-W-NH2; carbamate staple MA/MI) [FP0625c]
7 | – | 4700 | 500 to 5000 | Ac-PQ[R4″]ILD[MA]HVRRVWR-NH2 (staple 3-7) [FP0731c]
8 | 100 to 500 | – | – | Ac-A[Aib]ILDAHI[Aib]RVW-NH2 (SMILES CC[C@H](C)[C@H](NC(=O)[C@H](Cc1c[nH]cn1)NC(=O)[C@H](C)NC(=O)[C@H](CC(=O)O)NC(=O)[C@H](CC(C)C)NC(=O)[C@@H](NC(=O)C(C)(C)NC(=O)[C@H](C)NC(C)=O)[C@@H](C)CC)C(=O)NC(C)(C)C(=O)N[C@@H](CCCNC(=N)N)C(=O)N[C@H](C(=O)N[C@@H](Cc1c[nH]c2ccccc12)C(N)=O)C(C)C) [FP0628_aib]
9 | – | 520 | 500 to 5000 | Ac-PQ[MA]ILD[R7]HVRRVWR-NH2 (staple 3-7) [FP0727c]
10 | 100 to 500 | – | – | Ac-A[R7]ILDAHI[MF]RVW-NH2 (staple 2-9; also: carbamate staple, olefin geometry not assigned) [FP0503c]
11 | – | 1400 | 500 to 5000 | Ac-PQ[MA]ILD[R5]HVRRVWR-NH2 (staple 3-7) [FP0723c]
12 | 100 to 500 | – | – | Ac-A[MI]ILDAHI[S5]RVW-NH2 (staple 2-9; also: carbamate staple, isomer 1, olefin geometry not assigned) [FP0506c Isomer 1]
13 | – | 1300 | 500 to 5000 | Ac-PQ[MA]ILD[R4]HVRRVWR-NH2 (staple 3-7) [FP0721c]
14 | – | 2100 | 500 to 5000 | Ac-PQ[MA]ILD[S7]HVRRVWR-NH2 (staple 3-7) [FP0728c]
15 | 100 to 500 | – | – | AXILDAHIXRVW (not fully specified; Ac-A-R7-I-L-D-A-H-I-MF-R-V-W-NH2; amino staple R7/MF) [FP0503a]
16 | 100 to 500 | – | – | Ac-A[R7″]ILDAHI[MA]RVW-NH2 (staple 2-9; not fully specified; printed as Ac-A-R7-I-L-D-A-H-I-MA-R-V-W-NH2) [FP0516a Isomer 1]
17 | 100 to 500 | – | – | Ac-A[R8]ILDAHI[MB(5)]RV[dW]-NH2 (staple 2-9) [FP0630c]
18 | 100 to 500 | – | – | Ac-A[R8]I[αMeL]DAHI[MB(4)]RVW-NH2 (staple 2-9) [FP0644c]
19 | 100 to 500 | – | – | AXILDAHIXRVW (not fully specified; Ac-A-MG-I-L-D-A-H-I-MF-R-V-W-NH2; carbamate staple MG/MF) [FP0594c]

— patent US11198713B2, “Agents modulating beta-catenin functions and methods thereof” (FOG PHARMACEUTICALS, INC., priority 2017, dated 2021)
